# Experimental data as given in the supplement of paper PMC10567573.
# B1: HDAC6 (parent)
# chain: ACAQLATGAACRLVEAVLSGEVLN
# B2: SASS6 (parent)
# chain: QKELQDVGQSLRIKEQEVCKLQEQ
# B3: SMG5 (parent)
# chain: TRKLSPGKKRCKDIKRLLVNFMYL
# Variants of: B1
# Assay: protein stability index of a GFP-peptide fusion (GPS, HEK-293T) (PSI 1-6); higher = more stable
# Settings: c terminus: a fixed tail appended
# 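Also: lentivirally expressed fusions sorted by FACS into six bins by GFP to DsRed ratio, PSI derived from sequencing read proportions per bin multiplied by bin number.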
row,Variant,protein stability index
1,ACAQLATTAACRLVEAVLSGEVLN,3.69
2,ACAQLATMAACRLVEAVLSGEVLN,1.28
3,ACAQLATDAACRLVEAVLSGEVLN,2.67
4,ACAQLATSAACRLVEAVLSGEVLN,1.94
5,ACAQLATCAACRLVEAVLSGEVLN,2.74
6,ACAQLATGAACRLVEAVLAGEVLN,4.12
7,ACAQLATGAACRLVEAVLPGEVLN,2.98
8,ACAQLATGAACRLVHAVLSGEVLN,4.01
9,ACAQLATGAACRLVNAVLSGEVLN,2.52
10,ACAQLATGAACRLVPAVLSGEVLN,1.05
11,ACAQLATGDACRLVEAVLSGEVLN,2.61
12,ACAQLATGYACRLVEAVLSGEVLN,1.68
13,ACAQLATGRACRLVEAVLSGEVLN,3
14,ACAQLATGPACRLVEAVLSGEVLN,2.4
15,ACAQLATGKACRLVEAVLSGEVLN,2.23
16,ACAQLATGIACRLVEAVLSGEVLN,3.52
17,ACAQLATGEACRLVEAVLSGEVLN,3.49
18,ACAQLATGWACRLVEAVLSGEVLN,2.99
19,ACAQLATGGACRLVEAVLSGEVLN,1.69
20,ACAQLATGNACRLVEAVLSGEVLN,1.09
21,ACFQLATGAACRLVEAVLSGEVLN,3.94
22,ACDQLATGAACRLVEAVLSGEVLN,2.88
23,ACNQLATGAACRLVEAVLSGEVLN,1.68

row,Variant,protein stability index
1,ACSQLATGAACRLVEAVLSGEVLN,4.04
2,ACWQLATGAACRLVEAVLSGEVLN,2.17
3,ACAQPATGAACRLVEAVLSGEVLN,2.2
4,ACAQHATGAACRLVEAVLSGEVLN,1.42
5,ACAQTATGAACRLVEAVLSGEVLN,1.37
6,ACAQNATGAACRLVEAVLSGEVLN,1.81
7,ACAQEATGAACRLVEAVLSGEVLN,2.48
8,ACAQVATGAACRLVEAVLSGEVLN,1.16
9,ACAQGATGAACRLVEAVLSGEVLN,2.42
10,ACAQIATGAACRLVEAVLSGEVLN,1.51
11,ACAQQATGAACRLVEAVLSGEVLN,2.67
12,ACAQMATGAACRLVEAVLSGEVLN,2.68
13,ACAQDATGAACRLVEAVLSGEVLN,2.61
14,ACAQLATGAACRLVEAVLSGEVLK,2.61
15,ACAQLATGAACRLVEAVLSGEVLD,1.87
16,ACAQLATGAACRLVEAVLSGEVLF,1.85
17,ACAQLATGAAPRLVEAVLSGEVLN,2.27
18,ACAQLATGAARRLVEAVLSGEVLN,1.78
19,ACAQLATGAAKRLVEAVLSGEVLN,2.29
20,ACAQLATGAAARLVEAVLSGEVLN,2.9
21,ACAQLATGAAERLVEAVLSGEVLN,1.04
22,ACAALATGAACRLVEAVLSGEVLN,2.68
23,ACAPLATGAACRLVEAVLSGEVLN,1.04

row,Variant,protein stability index
1,ACAKLATGAACRLVEAVLSGEVLN,2.69
2,ACAYLATGAACRLVEAVLSGEVLN,4.38
3,ACAELATGAACRLVEAVLSGEVLN,2.92
4,ACAILATGAACRLVEAVLSGEVLN,1.55
5,ACAQLASGAACRLVEAVLSGEVLN,2.78
6,ACAQLAMGAACRLVEAVLSGEVLN,3.57
7,ACAQLANGAACRLVEAVLSGEVLN,1.54
8,ACAQLADGAACRLVEAVLSGEVLN,1.79
9,ACAQLATGAACPLVEAVLSGEVLN,2.66
10,ACAQLATGAACMLVEAVLSGEVLN,3.3
11,ACAQLATGAACQLVEAVLSGEVLN,1.97
12,ACAQLATGAACSLVEAVLSGEVLN,1.65
13,ACAQLATGAACYLVEAVLSGEVLN,3.46
14,ACAQLATGAACNLVEAVLSGEVLN,2.52
15,ACAQLATGAACALVEAVLSGEVLN,2.3
16,ACAQLATGAACDLVEAVLSGEVLN,1.48
17,ACAQLATGAACTLVEAVLSGEVLN,2.92
18,ACAQLATGAACGLVEAVLSGEVLN,1.26
19,ACAQLATGAACRLVEAVLSGEALN,3.65
20,ACAQLATGAACRLVEAVLSGEELN,1.84
21,ACAQLATGAACRLVEAVLSGEHLN,4.01
22,ACAQLATGAACRLVEAVLSGEDLN,2.37
23,ACAQLATGAACRLVEAVLSGEFLN,2.71

row,Variant,protein stability index
1,ACAQLATGAACRLVEAVLSGEPLN,2.42
2,ACAQLATGAACRLVEAVLSGELLN,2.09
3,ACAQLATGAACRLVEAVLSGESLN,1.36
4,ACAQLATGAACRLVEAVLSGEGLN,2.44
5,ACAQLATGAACRLVEAVLSGEKLN,1.01
6,ACAQLATGAACRLVEAVLSGEYLN,3.8
7,ACAQLATGAACRLVEAVLSGEMLN,3.31
8,ACAQLATGAACRLVEAVLSGEVMN,4.41
9,ACAQLATGAACRLVEAVLSGEVWN,2.42
10,ACAQLATGAACRLVEAVLSGEVAN,2.22
11,ACAQLATGAACRLVEAVLSGEVQN,1.05
12,ACAQLATGAACRLVEAVLSGEVKN,1.7
13,ACAQLATGAACRLVEAVLSGEVPN,1.96
14,ACAQLATGAACRLVEAVLSGEVVN,1.26
15,ACAQLATGAACRLVEAVLSGEVHN,3.51
16,ACAQLATGAACRLVEAVLSGEVYN,3.97
17,ACAQLATGAACRLVEAVLSGEVNN,1.54
18,ACAQLATGAACRLVEAVLSGEVDN,2.49
19,ACAQLATGAACRLVEAVLSGEVEN,2.83
20,ACAQLATGAACRLVEAVQSGEVLN,2.2
21,ACAQLATGAACRLVEAVMSGEVLN,3.05
22,ACAQLATGAACRLVEAVKSGEVLN,2.1
23,ACAQLATGAACRLVEAVCSGEVLN,1.45

row,Variant,protein stability index
1,ACAQLATGAACRLVEAVYSGEVLN,3.82
2,ACAQLATGAACRLVEAVASGEVLN,1.69
3,ACAQLATGAACRLVEAVSSGEVLN,2.04
4,ACAQLATGAACRLVEAVRSGEVLN,2.29
5,ACAQLATGAACRLVEAVTSGEVLN,2.02
6,ACAQLATGAACRLVEAVDSGEVLN,3.68
7,ACAQLATGAACRLVEAVHSGEVLN,2.47
8,ACAQLATGAACRLVEAVPSGEVLN,3.73
9,ACAQLQTGAACRLVEAVLSGEVLN,2.74
10,ACAQLITGAACRLVEAVLSGEVLN,3.57
11,ACAQLCTGAACRLVEAVLSGEVLN,2.49
12,ACAQLDTGAACRLVEAVLSGEVLN,2.11
13,ACAQLKTGAACRLVEAVLSGEVLN,1.19
14,ACAQLHTGAACRLVEAVLSGEVLN,1
15,ACAQLGTGAACRLVEAVLSGEVLN,2.25
16,ACAQLTTGAACRLVEAVLSGEVLN,1.39
17,ACAQLETGAACRLVEAVLSGEVLN,2.35
18,ACAQLNTGAACRLVEAVLSGEVLN,1.48
19,ACAQLATGAACRLMEAVLSGEVLN,3.28
20,ACAQLATGAACRLSEAVLSGEVLN,2.15
21,ACAQLATGAACRLCEAVLSGEVLN,3.54
22,ACAQLATGAACRLKEAVLSGEVLN,1.97
23,ACAQLATGAACRLAEAVLSGEVLN,2.05

row,Variant,protein stability index
1,ACAQLATGAACRLDEAVLSGEVLN,2.53
2,ACAQLATGAACRLQEAVLSGEVLN,2.74
3,ACAQLATGAACRLTEAVLSGEVLN,1.75
4,ACAQLATGAACRLNEAVLSGEVLN,3.78
5,ACAQLATGAACRLHEAVLSGEVLN,2.56
6,ACAQLATGAACRLGEAVLSGEVLN,2.17
7,ACAQLATGAACRLVEATLSGEVLN,2.04
8,ACAQLATGAACRLVEAPLSGEVLN,2.5
9,ACAQLATGAACRLVEADLSGEVLN,3.56
10,ACAQLATGAACRLVEAHLSGEVLN,2.75
11,ACAQLATGAACRLVEASLSGEVLN,1.93
12,ACAQLATGAACRLVEAQLSGEVLN,1.85
13,ACAQLATGAICRLVEAVLSGEVLN,2.01
14,ACAQLATGADCRLVEAVLSGEVLN,2.22
15,ACAQLATGAYCRLVEAVLSGEVLN,1.49
16,ACAQLATGAQCRLVEAVLSGEVLN,1.71
17,ACAQLATGAKCRLVEAVLSGEVLN,2.38
18,ACAQLATGAGCRLVEAVLSGEVLN,1.43
19,ACAQLATGAPCRLVEAVLSGEVLN,2
20,ACAQLATGACCRLVEAVLSGEVLN,2.16
21,ACAQLATGAECRLVEAVLSGEVLN,1.82
22,ACAQLATGARCRLVEAVLSGEVLN,1.7
23,ACAQLATGAACRLVEAVLSSEVLN,2.89

row,Variant,protein stability index
1,ACAQLATGAACRLVEAVLSEEVLN,1.43
2,ACAQLATGAACRLVEAVLSDEVLN,2.25
3,ACAQLATGAACRLVEAVLSLEVLN,3.07
4,ACAQLATGAACRLVEAVLSFEVLN,3.97
5,ACAQLATGAACRLVEAVLSPEVLN,2.07
6,ACAQLATGAACRLVEAVLSREVLN,2.86
7,ACAQLATGAACRLVEAVLSIEVLN,2.15
8,ATAQLATGAACRLVEAVLSGEVLN,3.63
9,AEAQLATGAACRLVEAVLSGEVLN,2
10,ANAQLATGAACRLVEAVLSGEVLN,1.21
11,ASAQLATGAACRLVEAVLSGEVLN,1.08
12,AQAQLATGAACRLVEAVLSGEVLN,2.97
13,APAQLATGAACRLVEAVLSGEVLN,1.82
14,ADAQLATGAACRLVEAVLSGEVLN,2.98
15,AKAQLATGAACRLVEAVLSGEVLN,1.99
16,ALAQLATGAACRLVEAVLSGEVLN,3.12
17,ACAQLATGAACRRVEAVLSGEVLN,2.5
18,ACAQLATGAACRHVEAVLSGEVLN,3.21
19,ACAQLATGAACRPVEAVLSGEVLN,2.53
20,ACAQLATGAACRTVEAVLSGEVLN,1.93
21,ACAQLATGAACRMVEAVLSGEVLN,2.93
22,ACAQLATGAACRDVEAVLSGEVLN,3.58
23,ACAQLATGAACRKVEAVLSGEVLN,3.91

row,Variant,protein stability index
1,ACAQLATGAACRNVEAVLSGEVLN,2.06
2,ACAQLATGAACRSVEAVLSGEVLN,1.68
3,ACAQLATGAACRLVEAVLSGWVLN,2.67
4,ACAQLATGAACRLVEAVLSGYVLN,3.01
5,ACAQLATGAACRLVEAVLSGCVLN,2.87
6,ACAQLATGAACRLVEAVLSGDVLN,2.6
7,ACAQLATGAACRLVEAVLSGNVLN,3.96
8,ACAQLATGAACRLVEAVLSGKVLN,1.09
9,ACAQLATGAACRLVEAVLSGIVLN,3.07
10,ACAQLATGAACRLVELVLSGEVLN,2.77
11,ACAQLATGAACRLVERVLSGEVLN,2.18
12,ACAQLATGAACRLVEPVLSGEVLN,2.28
13,ACAQLATGAACRLVEDVLSGEVLN,2.78
14,ACAQLATGAACRLVEYVLSGEVLN,3.51
15,SCAQLATGAACRLVEAVLSGEVLN,3.19
16,KCAQLATGAACRLVEAVLSGEVLN,1.92
17,TCAQLATGAACRLVEAVLSGEVLN,4.34
18,CCAQLATGAACRLVEAVLSGEVLN,1.16
19,ECAQLATGAACRLVEAVLSGEVLN,3.75
20,GCAQLATGAACRLVEAVLSGEVLN,1
21,PCAQLATGAACRLVEAVLSGEVLN,1.53

# Variants of: B2
# Assay: as above
# Settings: c terminus: a fixed tail appended
row,Variant,protein stability index
1,EKELQDVGQSLRIKEQEVCKLQEQ,5.94
2,HKELQDVGQSLRIKEQEVCKLQEQ,5.51
3,CKELQDVGQSLRIKEQEVCKLQEQ,4.99
4,FKELQDVGQSLRIKEQEVCKLQEQ,4.25
5,KKELQDVGQSLRIKEQEVCKLQEQ,5.22

# Variants of: B3
# Assay: as above
# Settings: c terminus: a fixed tail appended
row,Variant,protein stability index
1,TRKLSPGKKRCKDIKRLLVNFMYY,2.08
